# Results from patent US20230365956A1.
# Assays:
# [1] = biological target: SARS-CoV-2 RBD variant Alpha (N501Y) (Sino Biological) (SARS-CoV-2) (UniProt P0DTC2); assay: BLI, affinity format: binder on AHC sensor, RBD in solution
# [2] = biological target: SARS-CoV-2 RBD variant Beta (K417N, E484K, N501Y) (Sino Biological) (SARS-CoV-2) (UniProt P0DTC2); assay: as above
# [3] = biological target: SARS-CoV-2 RBD variant Delta (L452R, T478K) (Sino Biological) (SARS-CoV-2) (UniProt P0DTC2); assay: as above
# [4] = biological target: SARS-CoV-2 RBD variant Gamma (K417T, E484K, N501Y) (Sino Biological) (SARS-CoV-2) (UniProt P0DTC2); assay: as above
# [5] = biological target: SARS-CoV-2 RBD variant Kappa (L452R, E484Q) (Sino Biological) (SARS-CoV-2) (UniProt P0DTC2); assay: as above
# [6] = biological target: SARS-CoV-2 RBD variant Lambda (L452Q, F490S) (Sino Biological) (SARS-CoV-2) (UniProt P0DTC2); assay: as above
# [7] = biological target: SARS-CoV-2 RBD variant Alpha (N501Y) (Sino Biological) (SARS-CoV-2) (UniProt P0DTC2); assay: BLI, avidity format: response at highest analyte concentration
# [8] = biological target: SARS-CoV-2 RBD variant Beta (K417N, E484K, N501Y) (Sino Biological) (SARS-CoV-2) (UniProt P0DTC2); assay: as above
# [9] = biological target: SARS-CoV-2 RBD variant Delta (L452R, T478K) (Sino Biological) (SARS-CoV-2) (UniProt P0DTC2); assay: as above
# [10] = biological target: SARS-CoV-2 RBD variant Gamma (K417T, E484K, N501Y) (Sino Biological) (SARS-CoV-2) (UniProt P0DTC2); assay: as above
# [11] = biological target: SARS-CoV-2 RBD variant Kappa (L452R, E484Q) (Sino Biological) (SARS-CoV-2) (UniProt P0DTC2); assay: as above
# [12] = biological target: SARS-CoV-2 RBD variant Lambda (L452Q, F490S) (Sino Biological) (SARS-CoV-2) (UniProt P0DTC2); assay: as above
# [13] = biological target: SARS-CoV-2 RBD variant Alpha (N501Y) (Sino Biological) (SARS-CoV-2) (UniProt P0DTC2); assay: BLI, affinity format: response at highest analyte concentration
# [14] = biological target: SARS-CoV-2 RBD variant Beta (K417N, E484K, N501Y) (Sino Biological) (SARS-CoV-2) (UniProt P0DTC2); assay: as above
# [15] = biological target: SARS-CoV-2 RBD variant Delta (L452R, T478K) (Sino Biological) (SARS-CoV-2) (UniProt P0DTC2); assay: as above
# [16] = biological target: SARS-CoV-2 RBD variant Gamma (K417T, E484K, N501Y) (Sino Biological) (SARS-CoV-2) (UniProt P0DTC2); assay: as above
# [17] = biological target: SARS-CoV-2 RBD variant Kappa (L452R, E484Q) (Sino Biological) (SARS-CoV-2) (UniProt P0DTC2); assay: as above
# [18] = biological target: SARS-CoV-2 RBD variant Lambda (L452Q, F490S) (Sino Biological) (SARS-CoV-2) (UniProt P0DTC2); assay: as above
# [19] = biological target: SARS-CoV-2 RBD variant Alpha (N501Y) (Sino Biological) (SARS-CoV-2) (UniProt P0DTC2); assay: BLI, avidity format: biotinylated RBD on SA sensor, binder in solution
# [20] = biological target: SARS-CoV-2 RBD variant Beta (K417N, E484K, N501Y) (Sino Biological) (SARS-CoV-2) (UniProt P0DTC2); assay: as above
# [21] = biological target: SARS-CoV-2 RBD variant Delta (L452R, T478K) (Sino Biological) (SARS-CoV-2) (UniProt P0DTC2); assay: as above
# [22] = biological target: SARS-CoV-2 RBD variant Gamma (K417T, E484K, N501Y) (Sino Biological) (SARS-CoV-2) (UniProt P0DTC2); assay: as above
# [23] = biological target: SARS-CoV-2 RBD variant Kappa (L452R, E484Q) (Sino Biological) (SARS-CoV-2) (UniProt P0DTC2); assay: as above
# [24] = biological target: SARS-CoV-2 RBD variant Lambda (L452Q, F490S) (Sino Biological) (SARS-CoV-2) (UniProt P0DTC2); assay: as above
substance,measurement,setting,value
Cilgavimab (antibody),Kd,[1],2.44 nM
same,koff,[1],0.000981 s⁻¹
same,kon,[1],401000 M⁻¹ s⁻¹
same,Kd,[2],1.43 nM
same,koff,[2],0.000631 s⁻¹
same,kon,[2],441000 M⁻¹ s⁻¹
same,Kd,[3],7.34 nM
same,koff,[3],0.00321 s⁻¹
same,kon,[3],438000 M⁻¹ s⁻¹
same,Kd,[4],2.82 nM
same,koff,[4],0.0011 s⁻¹
same,kon,[4],392000 M⁻¹ s⁻¹
same,Kd,[5],9.89 nM
same,koff,[5],0.00364 s⁻¹
same,kon,[5],368000 M⁻¹ s⁻¹
same,Kd,[6],9.81 nM
same,koff,[6],0.00348 s⁻¹
same,kon,[6],354000 M⁻¹ s⁻¹
same,Response,[7],0.697 nm shift
same,Response,[8],0.473 nm shift
same,Response,[9],0.525 nm shift
same,Response,[10],0.657 nm shift
same,Response,[11],0.628 nm shift
same,Response,[12],0.727 nm shift
same,Response,[13],0.452 nm shift
same,Response,[14],0.438 nm shift
same,Response,[15],0.357 nm shift
same,Response,[16],0.428 nm shift
same,Response,[17],0.322 nm shift
same,Response,[18],0.236 nm shift
same,Kd,[19],0.124 nM
same,koff,[19],4.26e-05 s⁻¹
same,kon,[19],344000 M⁻¹ s⁻¹
same,Kd,[20],0.273 nM
same,koff,[20],9.67e-05 s⁻¹
same,kon,[20],355000 M⁻¹ s⁻¹
same,Kd,[21],0.0481 nM
same,koff,[21],1.61e-05 s⁻¹
same,kon,[21],335000 M⁻¹ s⁻¹
same,Kd,[22],0.193 nM
same,koff,[22],7.42e-05 s⁻¹
same,kon,[22],385000 M⁻¹ s⁻¹
same,Kd,[23],0.204 nM
same,koff,[23],6.08e-05 s⁻¹
same,kon,[23],298000 M⁻¹ s⁻¹
same,Kd,[24],0.0815 nM
same,koff,[24],2.37e-05 s⁻¹
same,kon,[24],291000 M⁻¹ s⁻¹
